According to patent publication US20230047413A1 (Janssen / Centocor, published 2023):

Tests used:
[1] = target: T1, PHF-tau (paired helical filament tau isolated from Alzheimer's disease brain) (human, UniProt P10636-8 2-441, limits assumed, hyper-phosphorylated, aggregated; sites not listed for the preparation); test: SPR ProteOn, PHF-tau on chip
T1 construct: also called enriched PHF-tau; ePHF-tau

[2] = target: T2, tau phospho-peptide of the direct ELISA of Example 11; test: direct ELISA, peptide coated
T2 construct: also called pT217 peptide; pT212/pT217 peptide
Procedure, shortened: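 Tau phospho-peptide coated directly on plates at 10 ng/mL overnight, then incubated with antibodies. Bound Fab detected with HRPO-labelled anti-Fab antibody (1:10000) and TMB substrate. Binding curves generated from the read-out.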

[3] = target: T1, PHF-tau (paired helical filament tau …); test: SPR ProteOn, PHF-tau capture-coupled via HT7, bivalent model
Experimental: (§1) Affinity matured monoclonal antibodies were tested for binding to PHF-tau isolated from Alzheimer's disease brain.
(§2) A GLC sensor chip was covalently immobilized with a mouse anti-tau antibody, HT7 (ThermoFisher, catalog# MN1000) using the vendor recommended protocol for amine-coupling chemistry (˜5000 response units, RU). The coupling buffer was 10 mM, pH 4.5 sodium acetate. PHF-tau was prepared by 2-times centrifugation at 5000×g in 5° C. for 10 min. […] After capture-coupling, the surface was activated and deactivated to generate a homogenous PHF-tau surface for antibody binding studies. The anti-tau antibodies and their Fabs (prepared in running buffer, 0.024-75 nM at 5-fold dilutions) were injected at 50 μL/min over the PHF-tau surface to measure binding. The association and dissociation profiles were monitored for 4 minutes and 2 hours, respectively. After dissociation, the sensor chip was regenerated using multiple injections of 10 mM Glycine pH 2.0 and the running buffer. A reference surface (without any PHF-tau) was used to monitor non-specific binding of the injected mAbs or Fabs. HT7 antibody was used as a positive control. The binding sensorgrams for mAbs were fit using a bivalent binding model where the apparent affinity or avidity-driven binding (KD) was reported as the ratio of off-rate and on-rate (koff/kₒₙ). A 1:1 Langmuir binding model was used for kinetics analysis of Fabs.

[4] = target: T1, PHF-tau (paired helical filament tau …); test: SPR ProteOn, PHF-tau capture-coupled via HT7, bivalent model; lower end of range
Experimental: as §1
as §2, with “A 1:1 Langmuir binding model was used for kinetics analysis of Fabs.” left out

[5] = target: T1, PHF-tau (paired helical filament tau …); test: SPR ProteOn, PHF-tau capture-coupled via HT7, bivalent model; upper end of range
Experimental: as §1
as §2, with “A 1:1 Langmuir binding model was used for kinetics analysis of Fabs.” left out

[6] = target: T1, PHF-tau (paired helical filament tau …); test: SPR ProteOn, PHF-tau capture-coupled via HT7, bivalent model; lower end of range; lower end of range
Experimental: as §1
as §2, with “A 1:1 Langmuir binding model was used for kinetics analysis of Fabs.” left out

[7] = target: T1, PHF-tau (paired helical filament tau …); test: SPR ProteOn, PHF-tau capture-coupled via HT7, bivalent model; upper end of range; upper end of range
Experimental: as §1
as §2, with “A 1:1 Langmuir binding model was used for kinetics analysis of Fabs.” left out

[8] = target: T2, tau phospho-peptide of the direct ELISA …; test: direct ELISA on plate-coated tau phospho-peptide (10 ng/mL), detection with HRPO-labelled anti-Fab antibody
Experimental: Binding to tau phospho-peptide was analysed by ELISA where peptide (10 ng/mL) was directly coated to the plate overnight. […] After incubation with antibodies, plates were washed and 50 μL per well of HRPO labelled anti-Fab antibody (Jackson Immunoresearch laboratories) (diluted 1:10000 in blocking buffer). After another washing step detection was performed with “One step” TMB (Thermo Scientific) according to the manufacturers' instructions. Plates were analysed in EnVision® 2102 Multilabel Reader (Perkin Elmer, Waltham, Mass., USA). Binding curves were generated using GraphPad Prism7.0 software.

T1 sequence (P10636 other isoform, or with tags, fused parts or gaps limits assumed): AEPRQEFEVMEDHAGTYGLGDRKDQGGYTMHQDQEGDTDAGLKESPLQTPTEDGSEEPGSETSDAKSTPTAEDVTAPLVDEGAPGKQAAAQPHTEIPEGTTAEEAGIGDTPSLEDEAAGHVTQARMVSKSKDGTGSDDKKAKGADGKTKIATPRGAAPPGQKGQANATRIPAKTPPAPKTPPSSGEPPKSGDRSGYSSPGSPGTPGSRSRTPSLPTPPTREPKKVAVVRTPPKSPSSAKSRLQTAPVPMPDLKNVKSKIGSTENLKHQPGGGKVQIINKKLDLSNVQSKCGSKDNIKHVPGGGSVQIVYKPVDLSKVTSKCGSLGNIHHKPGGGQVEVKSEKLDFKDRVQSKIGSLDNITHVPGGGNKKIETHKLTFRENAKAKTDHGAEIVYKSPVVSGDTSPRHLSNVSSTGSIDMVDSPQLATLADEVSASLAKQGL
T2 sequence (main, as listed by the source): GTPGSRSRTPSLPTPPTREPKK

fold improvement in on-rate compared to the parent antibody (B296) [1]: 3 fold
EC50 [2]: 70.7 pM
Kd [3]: 1.8 pM
koff [3]: 1.13e-05 s⁻¹
kon [3]: 6.17e+06 M⁻¹ s⁻¹
Kd [4]: 1.6 pM
koff [4]: 1.08e-05 s⁻¹
Kd [5]: 2.1 pM
koff [5]: 1.17e-05 s⁻¹
kon [6]: 5.72e+06 M⁻¹ s⁻¹
kon [7]: 6.61e+06 M⁻¹ s⁻¹
EC50 (read off the curve) [8]: ~40 pM
B1: B711 (antibody, human IgG1, kappa, V domains shown)
VH: QVQLVESGGGVVQPGRSLRLSCAASGFTFTSYAMSWVRQAPGKGLEWVASITKGGNTYYADSVKGRFTISRDNSKNTLYLQMNSLRAEDTAVYYCARGWGIYGWFAYWGQVTLVTVSS
VL: DIQMTQSPSSLSASVGDRVTITCKASQDINRWLNWFQQKPGKAPKSLIYRANRLLDGVPSRFSGSGSGTDFTLTISSLQPEDFATYYCLQYDEFPLTFGQGTKLEIKR
notes: also called PT1B711
